Broadly, the Kd is the constant that tells how readily two partners part at equilibrium.

Where a chain is given by its changes, count along the chain named. A value given as a limit tells only on which side of the number the result lay.

Assay [1] has as its target T1, Recombinant His-tagged full-length human ApoE4 (Homo sapiens, ApoE4 (C112R mature), UniProt P02649, Cys112 → Arg112).
T1 construct: Apolipoprotein E, human, isoform E4; their rows are written on this molecule; source: E. coli-derived, His-tagged, fee-for-service by Innovagen
Briefly: SPR; Biacore 3000, PBS; the Fab injected at various concentrations (methods; the legend says ApoE4 over immobilised Fab); contact 120 s, dissociation 240 s, 30 μL/min; KD from ka and kd. To be noted: both partners purified. In general terms: In SPR one partner is held on a chip, and binding of the other changes the refractive index at the surface.
Target sequence in this assay (P02649 other isoform, or with tags, fused parts or gaps Cys112 → Arg112 | Cys112 → Arg112): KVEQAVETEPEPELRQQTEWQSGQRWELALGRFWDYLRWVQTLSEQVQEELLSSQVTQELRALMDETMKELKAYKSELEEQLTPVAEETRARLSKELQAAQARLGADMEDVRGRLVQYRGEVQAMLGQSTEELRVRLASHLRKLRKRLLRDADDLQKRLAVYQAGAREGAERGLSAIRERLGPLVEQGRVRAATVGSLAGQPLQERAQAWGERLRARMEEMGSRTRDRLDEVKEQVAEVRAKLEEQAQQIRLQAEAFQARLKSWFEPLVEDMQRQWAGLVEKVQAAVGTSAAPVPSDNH

The target of assay [2] is Recombinant His-tagged full-length human ApoE4 (human, UniProt P02649 19-317, Cys112 → Arg112). Put plainly: SPR.
Recombinant His-tagged full-length human ApoE4 (human, UniProt P02649 19-317, Cys112 → Arg112), sequence (P02649 other isoform, or with tags, fused parts or gaps Cys112 → Arg112): as the sequence (P02649 other isoform, or with tags, fused parts or gaps Cys112 → Arg112 | Cys112 → Arg112) above
Assay [3] has as its target T2, Recombinant His-tagged full-length human ApoE3 (Homo sapiens, ApoE3, UniProt P02649).
T2 construct: Apolipoprotein E, human, isoform E3 (C112, R158); ELISA used the Innovagen protein; their rows are written on this molecule; A recombinant 'full-length' ApoE from E. coli is probably the mature protein without signal peptide (surmise); also called ApoE3 FL; WT ApoE; source: E. coli-derived, His-tagged, fee-for-service by Innovagen
Put plainly: ELISA; ApoE peptide or full-length protein coated on the plate; serial dilutions of hybridoma cell supernatants; TBS with 2 mM CaCl2, 3% BSA block. The conditions noted are these: one partner purified. On the technique in general: An ELISA detects its analyte on a solid surface through an enzyme-linked reagent.
Target sequence in this assay (P02649 19-317): as the sequence (P02649 other isoform, or with tags, fused parts or gaps Cys112 → Arg112 | Cys112 → Arg112) above, with R112C counted along it

For assay [4], the target named is T2, Recombinant His-tagged full-length …. Put plainly: ELISA; ApoE variants or peptides coated (0.0025 μg/μL in TBS with 2 mM CaCl2, 16 h 4°C); serial dilutions of purified monoclonal antibodies (0.01 to 6.7 nM in the isoform panel), 2 h RT or 16 h 4°C; HRP secondary. The conditions noted are these: both partners purified.
Target sequence in this assay (P02649 19-317): as the sequence (P02649 other isoform, or with tags, fused parts or gaps Cys112 → Arg112 | Cys112 → Arg112) above, with R112C counted along it
The target in assay [5] is T3, ApoE3 in post mortem human brain tissue (APOEε3/ε3 PSEN1 E280A carrier) (Homo sapiens, ApoE3, UniProt P02649).
T3 construct: Apolipoprotein E, human, isoform E3; source: endogenous, post mortem human middle temporal gyrus, formalin-fixed paraffin-embedded sections
T3 sequence (P02649 19-317, stated change not applied): as the sequence (P02649 other isoform, or with tags, fused parts or gaps Cys112 → Arg112 | Cys112 → Arg112) above, with R112C counted along it
Put plainly: immunostaining of cells or tissue; formalin-fixed paraffin-embedded middle temporal gyrus sections of PSEN1 E280A carriers of different APOE genotypes; 1H4 0.012 μg/μL, 7C11 0.041 μg/μL, 19G 0.072 μg/μL overnight 4°C; HRP detection; not quantified. The conditions noted are these: one partner purified.

Assay [6] concerns the target T1, Recombinant His-tagged full-length …. Briefly: BLI; OCTET RED 96, 25°C; ApoE variants immobilised on anti-penta-His (HS1K) sensors; 7C11.mAb in solution, titrated. To be noted: both partners purified.
Target sequence in this assay (P02649 other isoform, or with tags, fused parts or gaps Cys112 → Arg112 | Cys112 → Arg112): as the sequence (P02649 other isoform, or with tags, fused parts or gaps Cys112 → Arg112 | Cys112 → Arg112) above
Assay [7] addresses T4, Recombinant His-tagged full-length human ApoE2 (Homo sapiens, ApoE2 (R158C mature), UniProt P02649, Arg158 → Cys158).
T4 construct: Apolipoprotein E, human, isoform E2; its rows are written on this molecule; source: E. coli-derived, His-tagged, fee-for-service by Innovagen
The assay is described as above. The conditions noted are these: both partners purified.
Target sequence in this assay (P02649 other isoform, or with tags, fused parts or gaps Arg158 → Cys158 | Arg158 → Cys158): as the sequence (P02649 other isoform, or with tags, fused parts or gaps Cys112 → Arg112 | Cys112 → Arg112) above, with R112C, R158C counted along it

Assay [8] concerns the target T2, Recombinant His-tagged full-length …. The description is as above. To be noted: both partners purified.
Target sequence in this assay (P02649 19-317): as the sequence (P02649 other isoform, or with tags, fused parts or gaps Cys112 → Arg112 | Cys112 → Arg112) above, with R112C counted along it
Assay [9] has as its target T1, Recombinant His-tagged full-length …. Put plainly: BLI; OCTET RED 96, 25°C; msIgG1 7C11.mAb loaded on anti-mouse Fc (AMC) sensors at 20 μg/mL; ApoE variant in solution (200 nM), PBS + 0.1% BSA. To be noted: both partners purified. Background: In BLI a coated tip is dipped into the sample, and binding shifts an interference pattern.
Assay [10] addresses T4, Recombinant His-tagged full-length …. Described as above. The conditions noted are these: both partners purified.
The target in assay [11] is T2, Recombinant His-tagged full-length …. The description is as above. The conditions noted are these: both partners purified.
The target of assay [12] is T1, Recombinant His-tagged full-length …. Put plainly: BLI; OCTET RED 96, 25°C; 7C11ch.IgG1 loaded on anti-human IgG Fc (AHC) sensors at 20 μg/mL; ApoE4 in solution (200 nM), PBS + 0.1% BSA. The conditions noted are these: both partners purified.

B1: 7C11-Fab (recombinant Fab fragment of the 7C11.chIgG1 antibody) (Fab, V domains shown)
VH: EVKLVESGGGLVQPGGSLKLSCAASGFTFSRYTMSWVRQTPEKRLEWVAKIRNVGGITYYPDTVKGRFTISRDNAKNTLYLQMSSLKSEDTAMYYCARHYYGSEDYFDYWGQGTTLTVSS
VL: DNVLTQSPASLAVSLGQRATISCKASQSVDYDGDSYMNWYQQKPGQPPKVFIYAASNLESGIPARFSGSGSGTNFTLNIHPVEEEDAATYYCQQSNEDPWTFGGGTKLEIK
notes: VH CDR-1 of 7C11; VH CDR-2 of 7C11; VH CDR-3 of 7C11; VL CDR-1 of 7C11; VL CDR-2 of 7C11; VL CDR-3 of 7C11; also called Fab-7C11; 7C11.IgGFab; source: recombinant, purified, fee-for-service by Creative BioStructure
As to B1, the values for the Kd in [1] and in assay [2] were around 10 nM and 25.1 nM, respectively.

B2: 25F.mAb (mouse monoclonal anti-ApoE3Ch antibody, clone 25F1-2) (antibody, V domains shown)
VH: EVQLQQSGAELVRPGALVKWSCKASGFNIKDYHIHWVKQRPEQGLDWIGWIDPEIDKTLYDPKFQGKARITADTSSNTAYLQLSSLTSEDTAVYYCARGTARASFDYWGQGTTLTVSS
VL: B1 VL with N2I, S35T, V50L, F51L, A54T, N74D, E85V
notes: VH CDR-1; VH CDR-2; VH CDR-3; VL CDR-1; VL CDR-2; VL CDR-3; Raised against the ApoECh peptide; also called 25F.Ab; source: hybridoma supernatant (25F.Ab) and purified monoclonal antibody (25F.mAb), fee-for-service by Innovagen
Regarding B2, in [3], the binding result is “binds”.

B3: 1H4.mAb (mouse monoclonal anti-ApoE antibody) (antibody, V domains shown)
VH: B1 VH with L11V, R31S, V54G, P61L, V64L, M93I, Y95F
VL: B1 VL with N74D
notes: VH CDR-1; VH CDR-2; VH CDR-3; VL CDR-1; VL CDR-2; VL CDR-3; Raised against the ApoE peptide; also called 1H4.Ab; source: hybridoma supernatant (1H4.Ab) and purified monoclonal antibody (1H4.mAb), fee-for-service by Innovagen
B3: the binding result in assay [4] and in [5] was “binds” throughout.

B4: 7C11.mAb (mouse monoclonal anti-ApoE antibody, msIgG1) (antibody, V domains shown)
VH: B1 VH
VL: B1 VL
notes: VH CDR-1; VH CDR-2; VH CDR-3; VL CDR-1; VL CDR-2; VL CDR-3; Mouse IgG1; also called 7C11.Ab; ms.7C11-Ab; source: hybridoma supernatant (7C11.Ab) and purified monoclonal antibody (7C11.mAb), fee-for-service by Innovagen
B4: the Kd in assay [6] is 6.07 nM; in assay [7], 7.41 nM; in assay [8] it was 16.8 nM; in assay [9], below 0.001 nM; in assay [10] it was 28.1 nM; in [11] it was 5.14 nM.

B5: 7C11.chIgG1 (chimeric mouse-human IgG1 7C11 antibody) (antibody, V domains shown)
VH: B1 VH
VL: B1 VL
notes: VH CDR-1 of 7C11; VH CDR-2 of 7C11; VH CDR-3 of 7C11; VL CDR-1 of 7C11; VL CDR-2 of 7C11; VL CDR-3 of 7C11; Human IgG1 constant regions; also called chimeric 7C11 antibody; 7C11 human chimeric antibody; source: human chimeric antibody produced as fee-for-service by Innovagen
B5: the dissociation constant Kd in [12] is below 0.001 nM.
